Reference: patent US20210301011A1, “COMPOSITION FOR PROPHYLAXIS OR TREATMENT OF IL-8 RELATED DISEASES” (CHUGAI SEIYAKU KABUSHIKI KAISHA, priority 2016, published 2021)

Assays:
[1] = molecular target: T1, human FcγRIIIa (Homo sapiens, UniProt P08637); experiment: Binding to soluble FcγR (BIACORE T200); details: 20° C., HBS-EP+
T1 construct: the soluble forms of FcγRIa and FcγRIIIa in human and cynomolgus monkey; His tag; made in house
Method: (§1) Soluble FcγRIa and FcγRIIIa in both human and cynomolgus monkey were produced in the form of His-tagged molecules by methods known to those of ordinary skill in the art. […] Next, soluble FcγRIa or FcγRIIIa was injected with a running buffer (used as a reference solution), and was made to interact with the antibodies captured onto the sensor chip. HBS-EP+(GE Healthcare) was used as the running buffer, and HBS-EP+ was also used to dilute the soluble FcγRIa or FcγRIIIa. […] All measurements were carried out at 20° C.

[2] = molecular target: T2, human FcγRIa (Homo sapiens, UniProt P12314); experiment: Binding to soluble FcγR (BIACORE T200); details: 20° C., HBS-EP+
T2 construct: the soluble forms of FcγRIa and FcγRIIIa in human and cynomolgus monkey; His tag; made in house
Method: as §1

[3] = molecular target: T3, cynomolgus monkey FcγRIIIa (Macaca fascicularis, UniProt Q8SPW2); experiment: Binding to soluble FcγR (BIACORE T200); details: 20° C., HBS-EP+
T3 construct: the soluble forms of FcγRIa and FcγRIIIa in human and cynomolgus monkey; His tag; made in house
Method: as §1

[4] = tested on: cynomolgus monkey FcγRIa; experiment: Binding to soluble FcγR (BIACORE T200); details: 20° C., HBS-EP+
Method: as §1

[5] = tested on: post-surgical adhesion; experiment: Adhesion after surgery (area surrounding the incision site in the abdominal wall) in endometriosis monkey models; assay type: in vivo, cynomolgus monkeys; details: 10 mg/kg; before vs six months after initiation of administration
Method: Specifically, adhesion to the area surrounding the incision site on the abdominal wall was compared before and after administration and evaluated by five evaluators on a three-point scale: (1) Improved, (2) Stable, and (3) Progressed. Ratings with a consensus among three or more of the five evaluators were adopted; otherwise (2) Stable was used. Evaluations were carried out on six monkeys in the vehicle group as well as seven monkeys in the antibody […]/[…]-[…] administration group. […] The monkey with “Progressed” was an individual in which the blood concentration of antibody […]/[…]-[…] had decreased due to anti-antibody production.

T2 sequence (P12314 16-292 limits assumed): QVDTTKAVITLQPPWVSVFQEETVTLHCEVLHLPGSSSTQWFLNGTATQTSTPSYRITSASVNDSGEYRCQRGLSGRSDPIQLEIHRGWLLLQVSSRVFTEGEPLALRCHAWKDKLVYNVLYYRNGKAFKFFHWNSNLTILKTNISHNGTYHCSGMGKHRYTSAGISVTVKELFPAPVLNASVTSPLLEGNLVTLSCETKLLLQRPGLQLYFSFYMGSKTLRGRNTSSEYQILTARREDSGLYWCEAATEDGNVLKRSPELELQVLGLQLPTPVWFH
T3 sequence (Q8SPW2 17-208 limits assumed): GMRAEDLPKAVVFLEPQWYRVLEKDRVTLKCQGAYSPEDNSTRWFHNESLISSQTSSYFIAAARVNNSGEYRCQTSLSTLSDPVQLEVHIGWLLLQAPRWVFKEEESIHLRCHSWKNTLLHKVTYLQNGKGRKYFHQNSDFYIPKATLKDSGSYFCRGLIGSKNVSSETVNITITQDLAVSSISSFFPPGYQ
T1 sequence (P08637 17-208 limits assumed): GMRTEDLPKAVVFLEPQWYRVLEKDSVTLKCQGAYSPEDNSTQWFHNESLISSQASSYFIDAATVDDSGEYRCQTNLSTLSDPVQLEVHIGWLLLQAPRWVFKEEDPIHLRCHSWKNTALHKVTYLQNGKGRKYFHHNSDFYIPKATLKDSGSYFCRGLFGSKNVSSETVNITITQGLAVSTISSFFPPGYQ

B1: H1009/L395-F1974m: H1009-F1974m (SEQ ID NO:36) heavy chain, L395-kOMT light chain; the anti-IL-8 antibody of Table 29 (antibody)
heavy: QVQLVESGGGLVQPGGSLRLSCAASGFTFSDYYLSWVRQAPGKGLEWVGLIRNKDNYHTPEYSASVKGRFTISRDDSKNSLYLTMSDLKTEDTAVYYCARENHRYDVELAYWGQGTLVTVSSASTKGPSVFPLAPSSKSTSGGTAALGCLVKDYFPEPVTVSWNSGALTSGVHTFPAVLQSSGLYSLSSVVTVPSSSLGTQTYICNVNHKPSNTKVDKKVEPKSCDKTHTCPPCPAPELRRGPSVFLFPPKPKDTLMISRTPEVTCVVVDVSHEDPEVKFNWYVDGVEVHNAKTKPREEQYNSTYRVVSVLTVLHQDWLNGKEYKCKVSNKGLPSSIEKTISKAKGQPREPQVYTLPPSREEMTKNQVSLTCLVKGFYPSDIAVEWESNGQPENNYKTTPPVLDSDGSFFLYSKLTVDKSRWQQGNVFSCSVLHEALHAHTTRKELSLSP
light: DIQMTQSPSSLSASVGDRVTITCRASEIIYSYLAWYQQKPGKAPKLLIYKAKTHADGVPSRFSGSGSGTDFTFTISSLQPEDIATYYCKHHFGFPRTFGQGTKVEIKRTVAAPSVFIFPPSDEQLKSGTASVVCLLNNFYPREAKVQWKVDNALQSGNSQESVTEQDSKDSTYSLSSTLTLSKADYEKHKVYACEVTHQGLSSPVTKSFNRGEC
binding to soluble human FcγRIIIa [1]: not to bind to any of the FcγRs
binding to soluble human FcγRIa [2]: not to bind to any of the FcγRs
binding to soluble cynomolgus monkey FcγRIIIa [3]: not to bind to any of the FcγRs
binding to soluble cynomolgus monkey FcγRIa [4]: not to bind to any of the FcγRs
post-surgical adhesion: Improved (monkeys/total) [5]: 6/7
post-surgical adhesion: Progressed (monkeys/total) [5]: 1/7
post-surgical adhesion: Stable (monkeys/total) [5]: 0/7
